The Human Domainome abundance scans (Beltran et al. 2025)

B1: RanBP-type and C3HC4-type zinc finger-containing protein 1, residues 369 to 411; numbered along this chain, Q9BYM8 (parent)
chain: YHCKTPDCKGWCFFEDDVNEFTCPVCFHVNCLLCKAIHEQMNC

Variants of: B1
Experiment: abundance fitness (aPCA) (normalised: wild type 0, dead -1); higher = more abundant; growth selection in yeast, the domain comes from the species named
Conditions: Homo sapiens

Abundance fitness of substitutions, site by site:
G10: K -0.621; F -0.346; R -0.66; A -0.541; T -0.494; H -0.359; S -0.587; E -0.573; M -0.563; P -0.723; N -0.79; V -0.779; D -0.764; Y -0.343; L -0.945
C23: S -0.904; L -0.89; K -0.529; Y -0.677; A -0.794; W -0.741; V -0.911; Q -0.621; E -0.82; H -0.786; G -0.891; T -0.761; R -0.771; M -0.895
V18: H -0.277; P 0.048; M -0.14; I 0.099; S -0.055; D -0.222; G -0.276; Q 0.06; N -0.267; F -0.272; T -0.01; W -0.458; E 0.001; K -0.001; R 0.069
F14: W 0.075; E -0.082; L 0.243; G 0.162; S -0.165; Q -0.295
T5: L -0.004; R -0.099; I -0.533; G -0.308; N -0.236; A -0.131; Q -0.004; P -0.764; H -0.159; Y -0.169; C -0.063; M 0.003; V -0.083; E -0.184; S -0.054
F21: I -0.039; D -0.211; P -0.688; H -0.665; W 0.083; Y -0.06; R -0.359; S 0.07; C -0.186; V 0.06; M -0.188; Q -0.205; N -0.321; G -0.291; A 0.083; T 0.03; E -0.501; K -0.285; L -0.45
E15: I -0.187; C -0.32; N -0.295; T -0.042; H -0.321; K -0.169; L -0.423; D -0.201; V -0.238; S -0.254; P -0.153; Q -0.096; G -0.204
K9: F -0.378; P 0.047; W -0.105; H -0.259; E 0.064; A 0.029; S 0.045; Y -0.485; T 0.056; R 0.036; V 0.026; G -0.042; N -0.19; Q -0.033
P6: H -0.434; C -0.709; S -0.266; I -0.411; M -0.23; G -0.494; F -0.493; Q -0.063; D -0.343; E -0.185; W -0.629; A -0.115; L -0.365
E20: S -0.222; D -0.347; I -0.465; V -0.391; G -0.457; N -0.276; L -0.163; T -0.119; F -0.122; H -0.332; M -0.1; K -0.202; C -0.303; P -0.83; A -0.311; R -0.255; Q -0.206
C12: V 0.071; L -0.348; G -0.274; R -0.193; S 0.252; Y 0.04; E -0.854
C3: M -0.978; S -0.831; D -0.969; L -0.884; R -0.906; G -0.826; V -1.32; W -0.879; N -0.666; K -0.771; T -0.937; F -1.12; E -0.984; P -1.13; I -0.593; Q -0.886
K4: P -0.527; L 0.124; S -0.14; H -0.174; R 0.021; W -0.083; N -0.134; C -0.201; A 0.012; V 0.051; Y -0.084; F 0.028; D -0.504; E -0.359; M 0.201; G -0.222; I -0.206
D7: E 0.034; R -0.117; P -0.615; H -0.2; I -0.812; C -0.656; S -0.165; K -0.095; M -0.202; W -0.469; V -0.597; F -0.245; G 0.057; L -0.2; Q -0.194
D16: N -0.171; I -0.458; G -0.075; R 0.044; P 0.113; V -0.075; C -0.182; T -0.088; Q 0.045; E 0.026; A 0.006; M -0.244; K 0.146; H -0.045; S -0.14; W -0.349; L -0.166
D17: K 0.079; M -0.256; A -0.038; G 0.116; H -0.021; T -0.077; V 0.034; Q 0.142; W -0.133; E 0.06; I -0.265; C -0.215
C8: R -0.908; Q -0.736; A -0.761; F -0.554; M -0.843; S -0.682; W -0.949; D -0.812; E -0.784; L -0.846; V -0.999; T -0.919; G -0.691
P24: G -0.389; K -0.287; E -0.277; D -0.36; L -0.681; A -0.558; I -1.09; H -0.676; C -0.658
H2: R 0.035; G -0.568; N 0.104; K 0.095; A -0.285; S -0.072; D -0.275; M -0.031; E -0.554; Y 0.105; T -0.149; F 0.029; Q 0.091; V -0.739; C -0.103; L -0.233; I -0.265
T22: N -0.32; C -0.149; K -0.102; F -0.261; E -0.166; H -0.032; Q -0.118; L -0.146; G -0.658; M -0.29; W -0.422; P -0.413; V -0.254; R -0.126; S -0.267; A -0.296; D -0.343; I -0.243
W11: P -0.529; C -0.088; Y -0.038; L 0.044; D -0.162; G -0.172; V 0.116; S 0.132; A -0.006; K 0.023; T 0.176; N 0.063; R 0.036; M 0.191; E 0.184
F13: S 0.066; R 0.092; A 0.124; C -0.111; E 0.428; V -0.235; T -0.084; G -0.279; K -0.084
Y1: M 0.028; L -0.453; N -0.408; K -0.336; W -0.437; V -0.265; T -0.24; S -0.409; I 0.051; H -0.256
N19: Q 0.052; P -0.276; K 0.09; R 0.014; G -0.194; M -0.078; A -0.023; S 0.024; D -0.052; E 0.042; V 0.028; L -0.081; W -0.152; C -0.118; H -0.264; T 0.09; Y -0.172; F -0.395
